# Results published in patent publication US20240252641A1 (TCR2 THERAPEUTICS, published 2024).
# Positions count from the first letter of the chain named.
# T1: CD70 on cells (CHO-CD70, JVM-3, U266, Raji, THP-1, T cells) (human, UniProt P32970 1-193)
# T1 construct: whole, on cells; also called cell-surface CD70
# T1 sequence (looked up): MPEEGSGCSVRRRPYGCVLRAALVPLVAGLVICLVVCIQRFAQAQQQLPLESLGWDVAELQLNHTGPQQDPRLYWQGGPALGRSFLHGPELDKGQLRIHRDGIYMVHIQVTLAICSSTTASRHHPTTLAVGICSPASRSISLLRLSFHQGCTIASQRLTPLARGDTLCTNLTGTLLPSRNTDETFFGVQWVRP
# T2: CD70 (UniProt P32970 39-193, limits assumed)
# T2 construct: also called CD70 (100 nM)
# T2 sequence (looked up): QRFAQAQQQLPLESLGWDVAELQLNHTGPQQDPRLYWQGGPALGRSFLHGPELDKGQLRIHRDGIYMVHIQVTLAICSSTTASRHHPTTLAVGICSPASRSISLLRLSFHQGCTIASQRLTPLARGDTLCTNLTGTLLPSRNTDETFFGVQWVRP
# B1: 1E3 (antibody, V domains shown)
# VH: QLQLQESGPGLVKPSETLSLTCTVSGASITSTSYYWNWIRQPPGKGLEWIGRISYSGSTYYNPSLKSRVTISVDTSKNQFSLKLSSVTATDTAVYYCARQIRYNWNPDTFDIWGQGTMVTVSS
# VL: EIVMTQSPATLSVSPGERATLSCRASQSLNSNLAWYQQKPAQAPRLLIYGASTRATGIPARFSGSGSGTEFTLTISSLQSEDFAVYYCQQYDNWPLTFGGGTKVEIK
# notes: alloy mouse hybridoma antibody; also called 1E3D9
# B2: 4G7 (antibody, V domains shown)
# VH: QVQLVESGGGVVQPGRSLRLSCAASGFTFSSYGLHWVRQAPGKGLDWVAVIWYDGSNKYYVDSVKGRFTISRDNSMNTLFLQMNSLRAEDTAVYYCARDEAAAAGAFDIWGQGTMVTVSS
# VL: DIQLTQSPSFLSASVGDRVTITCRASQGISSYLAWYQQKPGKAPKLLIYAASTLQSGVPSRFSGSGSGTEFTLTISSLQPEDFATYYCQQLNYYSITFGQGTRLEIK
# notes: alloy mouse hybridoma antibody; also called 4G7E8
# B3: 9B2 (antibody, V domains shown)
# VH: QLQVVESGGGLMQPGGSLRLSCAASGFTFSGSAMSWVRQAPGKGLEWVSSIYSHSMYTYYADSVKSRFTISTDNAKNTLYLQMNSLKPDDTAVYYCAASSDYEGLFVSWGQGTQVTVSS
# VL: QAVLTQPPSLSASPGSSVRLTCTLNSANSVGSYDISWYQQKAGSPPRYLLYYYSDSLSHQGSGVPSRFSGSTDASANAGLLLISGLQPEDEADYYCSAYNRGSHVFGGGTKLTVL
# B4: 9A1 (antibody, V domains shown)
# VH: QVQLVQSGAEVKKPGASVKVSCKASGYSFTGYYMHWVRQAPGQGLEWMGWINPKSGGTSYAQQFQGRVTMTRDTSMSTVYMELTRLRADDTAVYYCARLYYSGWYGDYWGQGTLVTVSS
# VL: DIQMTQSPSSLSASVGDRVTITCQASQDINNYLNWYQQKPGKVPNLLIYDASNLETGVPSRFSGSGSGTDFTFTISSLQPEDIATYYCQQYNNPPITFGQGTRLEIK
# notes: alloy mouse hybridoma antibody; also called 9A1H6
# B5: 15F8 (antibody, V domains shown)
# VH: EVQLVESGGGVVRPGGSLRLSCAASGFTFDDYGVSWVRQAPGRGLEWVSGINWNGGSTAYADSVKGRFTISRDSAKNSLYLQMDSLRAEDTALYYCAREEGSYYVWYFDIWGRGTLVTVSS
# VL: DIQMTQSPSSLSASVGDRVTITCRPSQSISNYLNWYQQKPGKAPKVLIYASFILQSGVPSRFGGSGSGTDFTLTISSLQPEDFATYYCQQSYSNPFTFGPGTKVDIK
# notes: alloy mouse hybridoma antibody; also called 15F8D8; 15F8D9
# B6: 2F1 (antibody, V domains shown)
# VH: EVQLVESGGVVVQPGGSLRLSCAASGFTFDDYTMHWVRQAPGKGLEWVSLVSWDGGSTYYADSVKGRFTTSRDNSKKFLYLQMNRLRTEDTALYFCAIDRAYRPYYYYHMDVWGKGTTVTVSS
# VL: not shown
# notes: alloy mouse hybridoma antibody; also called 2F1F7
# B7: 1E3 (1E3D9) (antibody, V domains shown)
# VH: B1 VH
# VL: B1 VL
# notes: IgG in hybridoma supernatant
# B8: 9A11 (9A11E8) (antibody, V domains shown)
# VH: QVQLVESGGGVVQPGRSLRLSCAASGFTFSNYGMYWVRQAPGKGLEWVAVIWYDGSKKYYGDSVKGRFTISRDNSKNTLYLQMNSLRAEDTAVYYCARDEDTVMASFDYWGQGTLVTVSS
# VL: B2 VL with G28D, S31I, K45Q, Y87S, Y93S, S95P, Q100G, R103K, L104V
# notes: IgG in hybridoma supernatant
# B9: 13G6 (antibody, V domains shown)
# VH: QVQLVESGGGVVQPGKSLRLSCAASGFTFSNYGIHWVRQAPGKGLEWVAVIWYDGSYKYYADSVKGRFTISRDNSKNTLYLQMNSLRAEDTALYYCARDTVDTYGSFDYWGQGTLVTVSS
# VL: B2 VL with C23G, K45N, L91H, Y93R, S95P
# notes: IgG in hybridoma supernatant; also called 13G6E8
# B10: 4G7 (4G7E8) (antibody, V domains shown)
# VH: B2 VH
# VL: B2 VL
# notes: IgG in hybridoma supernatant; The variable domains exist only inside scFv entries 1213/1214
# B11: 9A1 (9A1H6) (antibody, V domains shown)
# VH: B4 VH
# VL: B4 VL
# notes: IgG in hybridoma supernatant
# B12: 15F8 (15F8D8) (antibody, V domains shown)
# VH: B5 VH
# VL: B5 VL
# notes: IgG in hybridoma supernatant; also called 15F8D9
# B13: 2F1 (2F1F7) (antibody, V domains shown)
# VH: B6 VH
# VL: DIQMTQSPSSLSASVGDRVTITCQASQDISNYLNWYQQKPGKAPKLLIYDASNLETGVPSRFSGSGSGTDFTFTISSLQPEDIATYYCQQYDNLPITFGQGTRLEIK
# notes: IgG in hybridoma supernatant; The variable domains exist only inside scFv entries 1215/1216
# B14: R3aP4D6 VHH (VHH)
# VHH: QVQLQESGGGLVQAGGSLRLSCAASKSIIRDNVMAWHRQAPGKQRELVAIINTGGSANVDDSVKGRFTISRDNAKNMVYLQMNNLKPEDTAVYYCNVYYRDLWGQGTQVTVSS
# B15: R2P14A12 VHH (VHH)
# VHH: QVQLQESGGGLVQPGGSLRLSCVASGFTLDRYAVGWFRQAPGKELEGVSCISSSGDIIKYADSAKGRFTIARDNAKNTAYLQMNSLKPEDTAVYYCTAADPKDDCSVPGYYGLNYWGKGTQVTVSS
# notes: tested as VHH-His
# B16: R3P15F6 VHH (VHH)
# VHH: QVQLQESGGGLVQPGGSLRLSCVASGFTLDKYAIGWFRQAPGKELEGVSCITSSSGVVKYADSVKGRFIISRDNTNNRAFLQMSSLKPEDTAVYYCAAAGPPDDCSVPGYYGLNYWGKGTQVTVSS
# Target: T1, CD70 on cells (CHO-CD70, JVM-3, U266, …)
# Experiment: on Raji cells
row,cell binding,Binder
1,38800,B1
2,103000,B2
3,7310,B3
4,139000,B4
5,85100,B5
6,12100,B6

# Target: T2, CD70
# Experiment: Octet (BLI); mAb binding to CD70 with CD27 (competitor CD27)
row,CD27:CD70 Interaction Neutralization of mAb Binding,Binder
1,0.102,B7
2,0.0777,B8
3,0.0585,B9
4,0.0429,B10
5,0.0553,B11
6,0.0349,B12
7,0.0275,B13

# Target: T1, CD70 on cells (CHO-CD70, JVM-3, U266, …)
# Experiment: binding to CD70-expressing CHO cells with and without CD27-Fc
# Summary of the method: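 Anti-CD70 antibodies and CD27-Fc were applied to CHO cells with CD70 attached to the cell surface, in four set-ups. Each was applied alone; antibody was premixed with CD27-Fc; or cells were first coated with CD27-Fc or with antibody, washed, and then given the mixture. The binding signal was then measured in each set-up.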
row,binding result,Binder
1,binds,B14
2,binds,B15
3,binds,B16

# Target: T2, CD70
# Experiment: Octet (BLI); hybridoma mAb, CD70 at 100 nM
Kd [pM],Response,koff [s⁻¹],kon [M⁻¹ s⁻¹],Binder
255,0.506,3.88e-05,152000,B7
2.46,0.429,3.36e-07,137000,B8
3.42,0.409,3.3e-07,96400,B9
1280,0.357,0.000167,130000,B10
6.03,0.434,5.28e-07,87500,B11
4.81,0.382,3.36e-07,69800,B12
6600,0.698,0.000555,84100,B13

# Target: T1, CD70 on cells (CHO-CD70, JVM-3, U266, …)
# Experiment: on U266 cells
row,cell binding,Binder
1,106000,B1
2,310000,B2
3,8040,B3
4,324000,B4
5,213000,B5
6,30600,B6

# Target: T1, CD70 on cells (CHO-CD70, JVM-3, U266, …)
# Experiment: on JVM-3 cells
row,cell binding,Binder
1,121000,B1
2,322000,B2
3,8940,B3
4,401000,B4
5,234000,B5
6,31600,B6
